From patent publication CN117551199A (HANGZHOU RONGGU BIOTECHNOLOGY CO LTD, dated 2024)

T1: CLDN18.2 (Claudin18.2) expressed on cells (UniProt P56856-2 1-261)
T1 construct: whole, on cells; also called K562-CLDN18.2
T1 sequence (looked up): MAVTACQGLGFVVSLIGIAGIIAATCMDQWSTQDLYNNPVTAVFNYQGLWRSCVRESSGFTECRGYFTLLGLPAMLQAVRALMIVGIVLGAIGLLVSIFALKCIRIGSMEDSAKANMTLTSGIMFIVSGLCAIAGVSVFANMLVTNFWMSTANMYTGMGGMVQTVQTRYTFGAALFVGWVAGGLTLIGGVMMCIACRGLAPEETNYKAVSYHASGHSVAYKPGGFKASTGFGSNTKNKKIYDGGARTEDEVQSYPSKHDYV

B1: Claudin18.2纳米抗体 2F (VHH)
VHH: QVQLVESGGGSVQAGGSLRLSCAGSGYVYPYYCMGWFRQAPGKERERVASIDRAGSQSYADSVKGRFTISKDNAKNTLYLQMGSLEPEDTAMYYCATDLGDGLWYSGCGTYRYWGQGTQVTVSS
notes: Bactrian camel VHH, made in a cell-free system and purified on His beads; detected through a Myc tag; also called Claudin18.2nb; not shown: N-terminal tag of the cell-free construct (8His-GSG and vector-derived residues, known only from primer DNA); amino acid; C-terminal Myc tag (detected with anti-Myc-Tag 9B11)
B2: Claudin18.2纳米抗体 10B (VHH)
VHH: EVQLVESGGGSVQAGGSLRLSCAASEQTYNRYCMGWFRQAPGKEREGVADINWRGIPNYSDSVKGRFTISQDHAKNTLYLQMNSLKPEDTAMYYCAARRGLPVVGCYDEYNIWGQGTQVTVSS
notes: as for B1
B3: Claudin18.2纳米抗体 11C (VHH)
VHH: DVQLQESGGGSVQAGGSLRLSCAASGAIYMRNYMAWFRQVPGKEREGVAGISASSGRTYYDDSVKGRFTISQDNAKNTVYLQMNSLKPEDTAMYFCAADPFQVMIDTMRYWGQGTQVTVSS
notes: as for B1
B4: Claudin18.2纳米抗体 12B (VHH)
VHH: EVQLVESGGGSVQAGGSLRLSCAVSGYTYNLKYMGWFRQAPGKEREPVAFIYLGGDNQYYAPSVKDRFTISQDNAKNTVYLQMNSLKPDDTAMYYCAATTALLFLAQTSSWNYWGQGTQVTVSS
notes: Bactrian camel VHH, made in a cell-free system and purified on His beads; detected through a Myc tag; also called Claudin18.2nb; not shown: N-terminal tag of the cell-free construct (8His-GSG and vector-derived residues, known only from primer DNA); amino acid; C-terminal Myc tag (detected with anti-Myc antibody)

target: T1, CLDN18.2 (Claudin18.2) expressed on …; assay: flow cytometry on K562-CLDN18.2 cells, anti-Myc-Tag detection

| Binder | binding result |
| --- | --- |
| B1 | binds |
| B2 | binds |
| B3 | binds |
| B4 | binds |
